The RNAGym collection of RNA variant scans (doi:10.1073/pnas.2313332121)

B1: TPR t1 (parent)
chain: GACCAAUCUGCCCUCAGAGCUCGAGAACAUCUUCGGAUGCAGAGGAGGCAGGCUUCGGUGGCGCGAUAGCGCCAACGUCCUCAACCUCCAAUGCAUCCCACCACAUGAUGAUGCCUGAAGAGCCUUGGUUUUUUG

Variants of: B1
Test: polymerase ribozyme fitness, log enrichment relative to wild type (log ratio); higher = more active; in vitro selection for triplet polymerase activity
Outline: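 Streptavidin-bead capture of gel-excised extended constructs, followed by RT-PCR, closed a single triplicate in vitro selection round. That round began by annealing PCR-built, transcribed mutant libraries of each subunit of a heterodimeric triplet polymerase ribozyme with a biotinylated primer, the partner subunit and triplets, then incubating them frozen at −7 °C. After Illumina sequencing of inputs and outputs, genotypes needed ≥10 input reads and ≥1 read per output. Fitness is the base-2 logarithm of genotype enrichment over wild-type enrichment, using inverse-variance-weighted replicate averages.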

| Variant | polymerase ribozyme fitness (log ratio) |
| --- | --- |
| G52U G61A | -1.14 |
| G52U G61U | -0.708 |
| C53G C56U | -0.756 |
| C53G G63A C94A C115G G128C | -6.79 |
| C53G C80G | -3.16 |
| C53G U116C | -1.68 |
| C53U G71U G127A | -1.14 |
| U54G G57C | -1.44 |
| U54C C115U G127C | -1.97 |
| G52C G69U C99U | -1.34 |
| G52U G77U G117U U126C | -5.18 |
| U55A G63C C72U G77C C104A | -5.29 |
| G52C C62U C72A C82U A119U | -1.34 |
| C53G C123U | 0.236 |
| G52U G60A | -0.943 |
| G52U G60C | -0.445 |
| G52C G113A C124U | -1.69 |
| U54G C114A | -1.69 |
| G52C C82A U112G | -1.29 |
| C53G C82A C94U U130G | -0.77 |
| C53G C97U A118U | -0.0977 |
| C56A C89U | -1 |
| U54A C86U C124U | 1.14 |
| U54A C89U U96C G127A | -1.97 |

| Variant | polymerase ribozyme fitness (log ratio) |
| --- | --- |
| U55G C56U A95U | -1.91 |
| U55G G63A U81C | -3.9 |
| G52C G58A C79A C85U | -2.78 |
| C56A C62U C114U | -2.3 |
| C53U G60U C101U A103C | -5.14 |
| U55C C70U C88G | -0.976 |
| C53G C72A U112G G113C | -7.66 |
| C53U U96C | -0.173 |
| C53A G127U | -0.16 |
| C53G G61C A83G C88G C104A | -4.92 |
| C53U A90U | -0.929 |
| U54A C115U U131C G135C | -1.35 |
| C53G G117A U132A | -1.03 |
| U55G G61U C123A | 1.22 |
| C53U A74G C98U | -1.16 |
| C53A G127U U129A | -0.623 |
| C53U C72U G77U C82G A111C | -1.23 |
| G52A G57A A66U G127C | -3.31 |
| G52U G69U C79A U87C U129G | -1.06 |
| C53A G120U G122C U125A | -0.563 |
| U55A C79U C97U C115U G127C | -3.52 |
| G52U G117A | -1.81 |
| C53U G93A | -0.887 |
| C56A C76A G120U | -1.15 |

| Variant | polymerase ribozyme fitness (log ratio) |
| --- | --- |
| C53A U112G C124A | 0.889 |
| C53A C85G | -1.17 |
| C53U C104A | -1.8 |
| C53U C85U G127C | -2.36 |
| C56A C70G C124A G127A | -2.78 |
| G52A U55A G120C C123A C124U G135A | 1.07 |
| C53U C94A A121C | 0.891 |
| C56A C70U | -0.609 |
| C56A C70G | -3.6 |
| U54C G60U G69U U133G | -2.67 |
| G52C C72A U78C | 0.275 |
| C53U U55A | -0.075 |
| U55G C89G | -1.51 |
| C53U C70A | -1.49 |
| C53U C70G | -4.36 |
| C53G A66C A83G A84U | -3.08 |
| U55A G71U C102U A121G U132A | 0.31 |
| C53G C104U A111G | 0.815 |
| C53U C98U | -1.46 |
| U55A G57A G61A G77A U87A A100C | -1.72 |
| U54C U87A A95U U130A | -2.56 |
| G52U G61C C123A | -0.217 |
| G52U G93U | -1.93 |
| G52U G69U G71C | -1.06 |

| Variant | polymerase ribozyme fitness (log ratio) |
| --- | --- |
| G52U U81A | -2.79 |
| C56A C80U A111U | -4 |
| C53U U59C C89A C104U G117C G128U | -6.6 |
| G52C U125G | -1.59 |
| C53A C72G U92G | -2.94 |
| U55C C70U C85A | -2.03 |
| C53G U126A | -2.29 |
| C56A C79A | -1.77 |
| C53U U59A A84U U126C | -2.21 |
| C53A G117A | 0.856 |
| C53U U59G | -0.253 |
| C53G U87G C97U G117U | -4.2 |
| U55A A83G | -0.95 |
| U55G C115U | -0.797 |
| C53A U78C C82U C102U | -0.997 |
| G52U U125G | -1.12 |
| G52U U125A | -0.984 |
| C53U G61U U78C | 0.151 |
| G52C G61C C114G G120U | -5.46 |
| U54A C72U C102G U112G | -5.88 |
| C53A G61C G110A A119U U133A | -4.96 |
| G52C C53G G120U | -2.13 |
| C53A C56A G58C A68U C80A | -6.56 |
| G52U G117U U133A | -3.76 |

| Variant | polymerase ribozyme fitness (log ratio) |
| --- | --- |
| G52C C73G C82A | -1.97 |
| C56A C76A C88A C115U | -3.94 |
| U54G G107U | -5.37 |
| G52U C72U C104A G127C | -3.82 |
| U54A G57C A90G C114U U132A | -2.18 |
| G52A C82U | -0.917 |
| U55G C56A | -0.837 |
| U55G C56G | -1.53 |
| G52U U109C A118U | -6.47 |
| U54G A103U | -4.6 |
| C53A G69C | -1.38 |
| C53U C80A | -4.94 |
| U54C U106A C124U | 2.23 |
| G52C G61A C62U C85U U96G G117A | -4.79 |
| U54A C76U | -0.995 |
| G52A C80U | -1.94 |
| C53A C82G A84G | -0.378 |
| C53U C73G G113C | -4.51 |
| C53G G120A G127U | -0.0103 |
| G52A G60U | -2.42 |
| U54G G61A C80A G120U | -5.8 |
| U55C G58A G122A | -0.971 |
| G52U U129G | -2.57 |
| U54G G63A G69U U78G C102A U106G G120C | -6.62 |

| Variant | polymerase ribozyme fitness (log ratio) |
| --- | --- |
| U54C C56U C82A U96A | -1.95 |
| U54C G58A G69C A84U | -1.08 |
| G52A G71A U96G | -1.57 |
| C56A C72U G93U | -1.63 |
| C53A G93C | -0.396 |
| C56A A90U | -1.48 |
| U54C A84G C88A C98U | -1.69 |
| C53A G71A C124A | 0.149 |
| C53U G60U A121C | 1.26 |
| U54A G71U U126G | -2.06 |
| C53G G63C | -1.3 |
| G52C G60U | -1.44 |
| G52U U112A U126G | -0.97 |
| C56A C80G C86U | -3.12 |
| G52A G69C C85A G122A U133A | -4.36 |
| C53U G61U C114U | -2.37 |
| C53A G63A U78C | -2.46 |
| C53U C56U | -0.207 |
| G52A G57A G127C | -2.09 |
| C53A U106G A121U | 0.877 |
| C56A C62A C79A | -6.19 |
| G52C C124U | 1.26 |
| G52U C73G A84U | -1.78 |
| C53U C64U | -0.276 |

| Variant | polymerase ribozyme fitness (log ratio) |
| --- | --- |
| G52U G63A C101G C114G | -6.25 |
| G52C U116A G120A | -2.46 |
| U55C G60A C94A G113U | -4.46 |
| G52C C115A A118U U131A | -2.68 |
| G52U G113U | -3.87 |
| U55A C73U C86G C99U | -4.02 |
| C53G G57C G63C | -0.44 |
| U54A G69U G128C U130A U132A | -2.67 |
| C53A G61U C82G A84G | -0.925 |
| G52C U129C | -1.64 |
| G52A G57C | -0.388 |
| U55A C85U | -1.1 |
| G52A G69C C72U A95C | -1.66 |
| C53U U54G C56U U129C U133G | -0.985 |
| U55C A90U | -1.58 |
| C56A A83G G135U | -2.3 |
| U54A U133G | -0.274 |
| G52C G58A | -1.15 |
| U55C C56A A84C A111G U129A | -2.42 |
| G52U A66U | -1.95 |
| C53G G69A | -3.62 |
| G52U C94U U106A A119G | -0.397 |
| U54C U116A U131C | -3.16 |
